The numbers were not newly measured in PMC3061978, which cites them from elsewhere.

The data set deals with methylamine dehydrogenase (MADH) (Paracoccus denitrificans) (UniProt P22619). Put plainly: kinetics.
Sequence of UniProt P22619 (P22619 58-188, chain 1 of 2): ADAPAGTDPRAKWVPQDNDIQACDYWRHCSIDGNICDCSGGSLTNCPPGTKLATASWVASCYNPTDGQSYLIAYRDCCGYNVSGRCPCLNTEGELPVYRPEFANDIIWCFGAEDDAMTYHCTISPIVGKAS
Sequence of UniProt P22619 (P29894 29-417, chain 2 of 2, further chain): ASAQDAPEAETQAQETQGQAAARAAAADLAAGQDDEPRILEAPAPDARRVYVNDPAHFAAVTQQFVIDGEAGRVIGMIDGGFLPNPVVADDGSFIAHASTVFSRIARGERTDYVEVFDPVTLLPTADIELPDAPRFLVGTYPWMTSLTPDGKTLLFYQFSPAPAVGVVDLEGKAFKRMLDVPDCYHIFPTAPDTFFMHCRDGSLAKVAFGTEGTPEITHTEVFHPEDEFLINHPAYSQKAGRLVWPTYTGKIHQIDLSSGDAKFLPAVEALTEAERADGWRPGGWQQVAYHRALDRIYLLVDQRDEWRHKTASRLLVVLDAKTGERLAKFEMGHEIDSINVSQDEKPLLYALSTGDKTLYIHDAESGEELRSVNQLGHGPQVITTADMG

In general, Kd refers to the constant that tells how readily two partners part at equilibrium. MauG (from UniProt Q51658): the Kd is 10.1 µM.
